Numbered stars: 1 amine (or outer) side, 2 acyl side, 3 side chain; on linkers, the order of the positions; unused ones are H or OH. Bridge positions count the residues as written; N and C are the ends. Side chains are listed from the residue outwards. Ends that are not written are not given here. * marks the point of attachment. C20 diacid = O=C(O)CCCCCCCCCCCCCCCCCCC(=O)*; γGlu = O=C(O)[C@H](CCC(=O)[*:2])N[*:1]; AEEA = NCCOCCOCC(=O)O
T1: human calcitonin receptor (human, UniProt P30988 25-474)
T1 construct: whole, on cells; Membranes prepared from a stably transfected BHK cell line (Assay VII); also called hCTR; hCT
T1 sequence (looked up): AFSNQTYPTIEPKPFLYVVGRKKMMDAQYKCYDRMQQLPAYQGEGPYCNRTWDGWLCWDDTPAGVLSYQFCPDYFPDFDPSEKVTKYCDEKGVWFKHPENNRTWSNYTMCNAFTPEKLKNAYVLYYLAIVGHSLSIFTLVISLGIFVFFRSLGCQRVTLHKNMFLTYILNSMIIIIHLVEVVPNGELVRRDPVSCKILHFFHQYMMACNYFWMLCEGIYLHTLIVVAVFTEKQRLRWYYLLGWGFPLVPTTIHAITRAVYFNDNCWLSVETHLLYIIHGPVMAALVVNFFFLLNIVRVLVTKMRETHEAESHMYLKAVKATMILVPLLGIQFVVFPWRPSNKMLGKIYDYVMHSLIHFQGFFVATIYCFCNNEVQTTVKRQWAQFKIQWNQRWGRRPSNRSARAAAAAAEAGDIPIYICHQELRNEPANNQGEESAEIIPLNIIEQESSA

T2: rat amylin receptor (rat calcitonin receptor + rat RAMP 3) (rat, UniProt P32214 25-516; Q9JJ73 23-147)
T2 construct: whole, on cells; Membranes prepared from transiently transfected BHK tk'ts 13 cells (Assay VI); also called rAmylin-R; rAmylin
T2 sequence (looked up) 1: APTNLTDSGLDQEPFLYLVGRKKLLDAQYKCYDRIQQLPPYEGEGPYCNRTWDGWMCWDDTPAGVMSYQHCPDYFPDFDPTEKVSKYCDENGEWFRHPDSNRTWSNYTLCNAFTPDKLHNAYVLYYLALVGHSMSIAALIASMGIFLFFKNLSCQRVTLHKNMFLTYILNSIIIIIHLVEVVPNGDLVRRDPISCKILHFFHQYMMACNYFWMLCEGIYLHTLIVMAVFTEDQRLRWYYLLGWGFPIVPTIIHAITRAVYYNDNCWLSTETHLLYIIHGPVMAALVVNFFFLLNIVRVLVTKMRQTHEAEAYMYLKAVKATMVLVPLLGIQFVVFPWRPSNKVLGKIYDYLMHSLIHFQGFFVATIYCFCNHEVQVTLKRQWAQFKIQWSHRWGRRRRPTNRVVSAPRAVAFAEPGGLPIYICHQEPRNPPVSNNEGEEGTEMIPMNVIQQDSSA
T2 sequence (looked up) 2: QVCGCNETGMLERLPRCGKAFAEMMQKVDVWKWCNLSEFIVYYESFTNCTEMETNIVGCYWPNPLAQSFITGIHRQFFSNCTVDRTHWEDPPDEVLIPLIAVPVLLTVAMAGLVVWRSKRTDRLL

T3: rat calcitonin receptor (rat, UniProt P32214 25-516)
T3 construct: whole, on cells; Membranes prepared from transiently transfected BHK tk'ts 13 cells (Assay VIII); also called rCTR; rCT
T3 sequence (looked up): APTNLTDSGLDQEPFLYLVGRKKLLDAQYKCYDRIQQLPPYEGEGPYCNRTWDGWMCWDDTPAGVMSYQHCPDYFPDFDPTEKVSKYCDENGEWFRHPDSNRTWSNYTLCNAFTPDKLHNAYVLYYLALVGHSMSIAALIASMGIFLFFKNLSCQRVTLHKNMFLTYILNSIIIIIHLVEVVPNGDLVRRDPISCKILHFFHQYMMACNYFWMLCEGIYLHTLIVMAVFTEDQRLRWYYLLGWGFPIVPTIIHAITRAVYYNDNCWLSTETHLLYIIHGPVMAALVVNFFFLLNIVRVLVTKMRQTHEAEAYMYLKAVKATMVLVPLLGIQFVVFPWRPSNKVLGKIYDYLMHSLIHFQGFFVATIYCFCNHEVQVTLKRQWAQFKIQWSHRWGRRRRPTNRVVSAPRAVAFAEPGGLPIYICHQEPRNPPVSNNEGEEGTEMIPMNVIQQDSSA


What was measured:
[1] = target: T1, human calcitonin receptor; experiment: ratio of binding IC50s: human calcitonin receptor / human amylin receptor (reference)
Method: The resulting pellet was resuspended, homogenized and centrifuged (20.000 rpm, 15 min) in a buffer containing 20 mM Na-HEPES and 0.1 mM EDTA (pH 7.4, buffer 2). The resulting pellet was resuspended in buffer 2 and protein concentration was measured (BCA protein Assay, Pierce). The homogenate was kept cold during the whole procedure. The membranes were kept at −80° C. until use. The assay was performed in a 384 well Optiplate (PerkinElmer) in a total volume of 40 ul. Membranes were mixed with SPA beads. Final concentration of membranes 35 ng/μL final and SPA beads was 0.05 mg/well. Test-compounds were dissolved in DMSO and further diluted in assay buffer (50 mM Hepes, pH 7.4, 1 mM CaCl2, 5 mM MgCl₂, 0.1% OA and 0.02% Tween20). […] The final mixture was incubated with shaking at 400 rpm for 120 min at 25° C. prior to centrifugation (1500 rpm, 10 min). Samples were analyzed on TopCounter™ (Packard). The IC₅₀ was calculated using (one site binding competition analysis) GraphPad Prism5 as a measure of receptor affinity.
Membranes were prepared in the following way; the cells were rinsed with PBS and incubated with Versene for approximately 5 min before harvesting. The cells were flushed with PBS and the cell-suspension was centrifuged for 5 min at 1000 rpm. Cells were homogenized (Ultrathurrax) in a buffer containing 20 mM Na-HEPES and 10 mM EDTA (pH 7.4) and centrifuged at 20.000 rpm for 15 min. The resulting pellet was resuspended, homogenized and centrifuged (20.000 rpm, 15 min) in a buffer containing 20 mM Na-HEPES and 0.1 mM EDTA (pH 7.4, buffer 2). The resulting pellet was resuspended in buffer 2 and protein concentration was measured (BCA protein Assay, Pierce). The homogenate was kept cold during the whole procedure. The membranes were kept at −80° C. until use. Assay was performed in a 384 well Optiplate (PerkinElmer) in a total volume of 40 ul. Membranes were mixed with SPA beads.

[2] = target: T2, rat amylin receptor (rat calcitonin …); experiment: SPA competition vs 125I-rat amylin, membranes of BHK cells with rat calcitonin receptor + rat RAMP3 (Assay VI)
Method: The binding assay was performed using scintillation proximity assay (SPA) beads (RPNQ0001) from PerkinElmer and cell membranes from the Amylin 3(a)/CRE-luc cells (as described in Assay (II)) were used. Membranes were prepared in the following way; the cells were rinsed with PBS and incubated with Versene for approximately 5 min before harvesting. The cells were flushed with PBS and the cell-suspension was centrifuged for 5 min at 1000 rpm. Cells were homogenized (ultrathurrax) in a buffer containing 20 mM Na-HEPES and 10 mM EDTA (pH 7.4) and centrifuged at 20.000 rpm for 15 min. The resulting pellet was resuspended, homogenized and centrifuged (20.000 rpm, 15 min) in a buffer containing 20 mM Na-HEPES and 0.1 mM EDTA (pH 7.4, buffer 2). The resulting pellet was resuspended in buffer 2 and protein concentration was measured (BCA protein Assay, Pierce). The homogenate was kept cold during the whole procedure. The membranes were kept at −80° C. until use. The assay was performed in a 384 well Optiplate (PerkinElmer) in a total volume of 40 ul. Membranes were mixed with SPA beads. Final concentration of membranes 35 ng/μL final and SPA beads was 0.05 mg/well. Test-compounds were dissolved in DMSO and further diluted in assay buffer (50 mM Hepes, pH 7.4, 1 mM CaCl2, 5 mM MgCl₂, 0.1% OA and 0.02% Tween20). […] The final mixture was incubated with shaking at 400 rpm for 120 min at 25° C. prior to centrifugation (1500 rpm, 10 min). Samples were analyzed on TopCounter™ (Packard). The IC₅₀ was calculated using (one site binding competition analysis) GraphPad Prism5 as a measure of receptor affinity.
Cells were grown in DMEM with 10% FBS and 1% Pen/Strep. Approximately 48 hours after transfection, the cells were harvested and membranes were prepared.

[3] = target: T3, rat calcitonin receptor; experiment: ratio of binding IC50s: rat calcitonin receptor / rat amylin receptor (reference)
[4] = target: T3, rat calcitonin receptor; experiment: SPA competition vs 125I-calcitonin, membranes of BHK cells with rat calcitonin receptor (Assay VIII)

Binder | Ratio hCT/hAmylin binding [1] | IC50 [2] [nM] | Ratio rCT/rAmylin binding [3] | IC50 [4] [nM]
K([AEEA-γGlu-C20 diacid])CNTATCATQRLAHFLRHSSPNFGAIPSSTNVGSNTY-NH2 (disulfide 2-7; N-terminus assumed; SMILES CC[C@H](C)[C@H](NC(=O)[C@H](C)NC(=O)CNC(=O)[C@H](Cc1ccccc1)NC(=O)[C@H](CC(N)=O)NC(=O)[C@@H]1CCCN1C(=O)[C@H](CO)NC(=O)[C@H](CO)NC(=O)[C@H](Cc1c[nH]cn1)NC(=O)[C@H](CCCNC(=N)N)NC(=O)[C@H](CC(C)C)NC(=O)[C@H](Cc1ccccc1)NC(=O)[C@H](Cc1c[nH]cn1)NC(=O)[C@H](C)NC(=O)[C@H](CC(C)C)NC(=O)[C@H](CCCNC(=N)N)NC(=O)[C@H](CCC(N)=O)NC(=O)[C@@H](NC(=O)[C@H](C)NC(=O)[C@@H]1CSSC[C@H](NC(=O)[C@@H](N)CCCCNC(=O)COCCOCCNC(=O)CC[C@H](NC(=O)CCCCCCCCCCCCCCCCCCC(=O)O)C(=O)O)C(=O)N[C@@H](CC(N)=O)C(=O)N[C@@H]([C@@H](C)O)C(=O)N[C@@H](C)C(=O)N[C@@H]([C@@H](C)O)C(=O)N1)[C@@H](C)O)C(=O)N1CCC[C@H]1C(=O)N[C@@H](CO)C(=O)N[C@@H](CO)C(=O)N[C@H](C(=O)N[C@@H](CC(N)=O)C(=O)N[C@H](C(=O)NCC(=O)N[C@@H](CO)C(=O)N[C@@H](CC(N)=O)C(=O)N[C@H](C(=O)N[C@@H](Cc1ccc(O)cc1)C(N)=O)[C@@H](C)O)C(C)C)[C@@H](C)O, Analogue of human amylin; also called compound 69) | 65.3 | 0.45 | 104 | 46.8
K([AEEA-γGlu-C20 diacid])CNTATCATQRLAAFLRHSSPNFGAIPSSTPVGSNTY-NH2 (disulfide 2-7; N-terminus assumed; SMILES CC[C@H](C)[C@H](NC(=O)[C@H](C)NC(=O)CNC(=O)[C@H](Cc1ccccc1)NC(=O)[C@H](CC(N)=O)NC(=O)[C@@H]1CCCN1C(=O)[C@H](CO)NC(=O)[C@H](CO)NC(=O)[C@H](Cc1c[nH]cn1)NC(=O)[C@H](CCCNC(=N)N)NC(=O)[C@H](CC(C)C)NC(=O)[C@H](Cc1ccccc1)NC(=O)[C@H](C)NC(=O)[C@H](C)NC(=O)[C@H](CC(C)C)NC(=O)[C@H](CCCNC(=N)N)NC(=O)[C@H](CCC(N)=O)NC(=O)[C@@H](NC(=O)[C@H](C)NC(=O)[C@@H]1CSSC[C@H](NC(=O)[C@@H](N)CCCCNC(=O)COCCOCCNC(=O)CC[C@H](NC(=O)CCCCCCCCCCCCCCCCCCC(=O)O)C(=O)O)C(=O)N[C@@H](CC(N)=O)C(=O)N[C@@H]([C@@H](C)O)C(=O)N[C@@H](C)C(=O)N[C@@H]([C@@H](C)O)C(=O)N1)[C@@H](C)O)C(=O)N1CCC[C@H]1C(=O)N[C@@H](CO)C(=O)N[C@@H](CO)C(=O)N[C@H](C(=O)N1CCC[C@H]1C(=O)N[C@H](C(=O)NCC(=O)N[C@@H](CO)C(=O)N[C@@H](CC(N)=O)C(=O)N[C@H](C(=O)N[C@@H](Cc1ccc(O)cc1)C(N)=O)[C@@H](C)O)C(C)C)[C@@H](C)O, Analogue of human amylin; also called compound 72) | 247 | 0.851 | 259 | 221
K([AEEA-C20 diacid])CNTATCATQRLANFLRHSSPNFGAIPSSTNVGHNTY-NH2 (disulfide 2-7; N-terminus assumed; SMILES CC[C@H](C)[C@H](NC(=O)[C@H](C)NC(=O)CNC(=O)[C@H](Cc1ccccc1)NC(=O)[C@H](CC(N)=O)NC(=O)[C@@H]1CCCN1C(=O)[C@H](CO)NC(=O)[C@H](CO)NC(=O)[C@H](Cc1c[nH]cn1)NC(=O)[C@H](CCCNC(=N)N)NC(=O)[C@H](CC(C)C)NC(=O)[C@H](Cc1ccccc1)NC(=O)[C@H](CC(N)=O)NC(=O)[C@H](C)NC(=O)[C@H](CC(C)C)NC(=O)[C@H](CCCNC(=N)N)NC(=O)[C@H](CCC(N)=O)NC(=O)[C@@H](NC(=O)[C@H](C)NC(=O)[C@@H]1CSSC[C@H](NC(=O)[C@@H](N)CCCCNC(=O)COCCOCCNC(=O)CCCCCCCCCCCCCCCCCCC(=O)O)C(=O)N[C@@H](CC(N)=O)C(=O)N[C@@H]([C@@H](C)O)C(=O)N[C@@H](C)C(=O)N[C@@H]([C@@H](C)O)C(=O)N1)[C@@H](C)O)C(=O)N1CCC[C@H]1C(=O)N[C@@H](CO)C(=O)N[C@@H](CO)C(=O)N[C@H](C(=O)N[C@@H](CC(N)=O)C(=O)N[C@H](C(=O)NCC(=O)N[C@@H](Cc1c[nH]cn1)C(=O)N[C@@H](CC(N)=O)C(=O)N[C@H](C(=O)N[C@@H](Cc1ccc(O)cc1)C(N)=O)[C@@H](C)O)C(C)C)[C@@H](C)O, Analogue of human amylin; also called compound 91) [N^ε1-[2-[2-[2-(19-carboxynonadecanoylamino)ethoxy]ethoxy]acetyl]-[Arg17,Pro21,Pro27,His34]-h-amylin] | 101 | 0.386 | 76.3 | 29.4

Reference: US20140087995A1 (published 2014)
